Test results published in patent US20070093646A1 (BIOTIE THERAPIES, published 2007).

Molecular target: the molecule itself
Assay: X-ray crystal structure, 3.2 A, molecular replacement; one dimer per asymmetric unit
Protocol: One crystal was mounted in a capillary and preliminary X-ray analysis was carried out in-house using a rotating-anode radiation source (Cu Kα radiation, 50 kV, 150 mA) and MAR345 image plate detector. The crystal, however, diffracted to only 8 Å resolution and the space group could not be accurately determined. All further X-ray analysis, as well as data collection, was carried out using synchrotron radiation at the beamline X11 (EMBL/DESY Hamburg, Germany) equipped with a MAR Research CCD detector. For data collection, the crystals were cryo-protected with 20% (v/v) glycerol and flash-frozen in a 100 K nitrogen stream. Diffraction data, collected from three different crystals, were processed with the program XDS. The solvent content and Matthews coefficient were calculated assuming a molecular weight of 90 kDa per monomer and using the CCP4 suite.
The structure of VAP-1 was solved by molecular replacement using the program AMORE (Navaza, 1994) of the CCP4i program suite (Collaborative Computational Project, 1994). This method confirmed that the space group of VAP-1 crystals was P6522 with one biological unit, a dimer per asymmetric unit. […]
Electron density maps were calculated with FFT of CCP4i suite and were predictable enough to trace the VAP-1 polypeptide, even though, at the beginning of building, in several fragments. […]

B1: human vascular adhesion protein-1 (VAP-1) (enzyme)
chain: MNQKTILVLLILAVITIFALVCVLLVGRGGDGGEPSQLPHCPSVSPSAQPWTHPGQSQLFADLSREELTAVMRFLTQRLGPGLVDAAQARPSDNCVFSVELQLPPKAAALAHLDRGSPPPAREALAIVFFGRQPQPNVSELVVGPLPHPSYMRDVTVERHGGPLPYHRRPVLFQEYLDIDQMIFNRELPQASGLLHHCCFYKHRGRNLVTMTTAPRGLQSGDRATWFGLYYNISGAGFFLHHVGLELLVNHKALDPARWTIQKVFYQGRYYDSLAQLEAQFEAGLVNVVLIPDNGTGGSWSLKSPVPPGPAPPLQFYPQGPRFSVQGSRVASSLWTFSFGLGAFSGPRIFDVRFQGERLVYEISLQEALAIYGGNSPAAMTTRYVDGGFGMGKYTTPLTRGVDCPYLATYVDWHFLLESQAPKTIRDAFCVFEQNQGLPLRRHHSDLYSHYFGGLAETVLVVRSMSTLLNYDYVWDTVFHPSGAIEIRFYATGYISSAFLFGATGKYGNQVSEHTLGTVHTHSAHFKVDLDVAGLENWVWAEDMVFVPMAVPWSPEHQLQRLQVTRKLLEMEEQAAFLVGSATPRYLYLASNHSNKWGHPRGYRIQMLSFAGEPLPQNSSMARGFSWERYQLAVTQRKEEEPSSSSVFNQNDPWAPTVDFSDFINNETIAGKDLVAWVTAGFLHIPHAEDIPNTVTVGNGVGFFLRPYNFFDEDPSFYSADSIYFRGDQDAGACEVNPLACLPQAAACAPDLPAFSHGGFSHN
modifications: topaquinone (Tpq471) formed by post-translational modification of an intrinsic tyrosine at 471; N-glycan attached to Asn232; one copper ion per monomer in the active site
notes: Full-length protein was crystallized; Only residues A55-A761 and B57-B761 are modelled in the structure, with a few gaps; PDB entries are printed as IPU4 (probably 1PU4) and 1US1; also called hVAP-1; HVAP-1
  binding result: binds
